For orientation: Kd means the free concentration of one partner at which half of the binding sites on the other are occupied at equilibrium, for simple one-to-one binding.

Data set [1] addresses HIRA-WB;UBN1-NM (human;human, UniProt P54198;Q9NPG3 1-473;1-584, |). Briefly: fluorescence polarization; no histones; 20 mM HEPES pH 7.5, 150 mM NaCl, 0.5 mM TCEP, 0.001% Tween-20, 1 mg/ml BSA; 10 nM probe; temperature not stated. To be noted: protein: recombinant;recombinant; tags: N-terminal His;; copies: 1;1; label: 5'-FAM on sense strand; blunt.
In data set [2] the target is HIRA-WB;UBN1-NM;ASF1a-C (human;human;human?, UniProt P54198;Q9NPG3;Q9Y294 1-473;1-584;1-156, ||). The data set is described as above. To be noted: protein: recombinant;recombinant;recombinant; tags: N-terminal His;;GST cleaved with precision protease; copies: 1;1;1; label: 5'-FAM on sense strand; blunt.
Data set [3] addresses H3.3/H4 (Homo sapiens (H3.3); Xenopus laevis (H4), UniProt P84243;P62799 2-136;2-103). Briefly: fluorescence polarization; 20 mM HEPES pH 7.5, 150 mM NaCl, 0.5 mM TCEP, 0.001% Tween-20, 1 mg/ml BSA; 10 nM probe; temperature not stated. (In general: Fluorescence polarisation rises when a labelled molecule tumbles more slowly, as on binding a larger partner.)
Data set [4] deals with HIRA-WB;UBN1-NM;H3.3/H4 (human;human;Homo sapiens (H3.3); …, UniProt P54198;Q9NPG3;P84243;P62799 1-473;1-584;2-136;2-103, ||). The description is as above.

B1: 10x ATGC 40-mer dsDNA (dsDNA)
DNA 1: ATGCATGCATGCATGCATGCATGCATGCATGCATGCATGC
DNA 2: GCATGCATGCATGCATGCATGCATGCATGCATGCATGCAT
In the case of B1, the Kd in data set [1] stood at 370 nM; in data set [2], 970 nM; in data set [3], 240 nM; in data set [4], 40 nM.

Source of the values: article PMC11388340, “HIRA complex deposition of histone H3.3 is driven by histone tetramerization and histone-DNA binding”.
